Experiment [1] concerns the target platelet glycoprotein GPIb-IX complex (Homo sapiens (Human)) (UniProt P07359).
The target is the same in experiment [2]. The experiment in a line: inhibition of botrocetin-induced 125I-vWF binding to washed platelets (procedure of Ruggeri et al.); competitor vWF.

This is an account of results in patent publication US5679542.

Where “and” joins values, the source holds several entries; their conditions need not be identical. Identical values can stand only once.

Take “CC, platelet antiadhesive purified from Cerastes cerastes venom”: the botrocetin/ristocetin-induced agglutination inhibition assay using PRP in experiment [1] is 3 µg/mL and 2 µg/mL. In experiment [2], “CHH-B, platelet antiadhesive (GPIb inhibitor) purified from Crotalus horridus horridus venom” had a concentration that inhibited the binding of vWF to platelets of less than 200 nM. Consider “purified protein from C. horridus horridus, as prepared in Example 2 (as tested in Example 6)”, for which the botrocetin/ristocetin-induced agglutination inhibition assay using PRP in experiment [1] was 2 µg/mL and 3 µg/mL.
